Measurements reported in the supplement of paper PMC10065799, “High-throughput profiling of sequence recognition by tyrosine kinases and SH2 domains using bacterial peptide display” (eLife, 2023).

Tests used:
AncSZ = test: phosphorylation enrichment, bacterial display (enrichment ratio); higher = better substrate or ligand; peptides without Tyr show the background
EPHB1 = EPHB1 (UniProt P54762); test: as above
EPHB2 = EPHB2 (UniProt P29323); test: as above
FGFR1 = FGFR1 (UniProt P11362); test: as above
FGFR3 = FGFR3 (UniProt P22607); test: as above
Fer (mouse) = test: as above
Fes = Fes (UniProt P07332); test: as above
Fyn = Fyn (UniProt P06241); test: as above
Hck = Hck (UniProt P08631); test: as above
Jak2 = Jak2 (UniProt O60674); test: as above
MERTK = MERTK (UniProt Q12866); test: as above
c-Abl (mouse) = test: as above
c-Src = test: as above
Grb2 SH2 = Grb2 SH2 (UniProt P62993); test: SH2 binding enrichment of the phosphorylated peptide, bacterial display (enrichment ratio); higher = better substrate or ligand; peptides without Tyr show the background
SHP2-C SH2 = test: as above
c-Src SH2 = test: as above
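For SH2 binding enrichment of the phosphorylated peptide, bacterial display in this document: peptide library displayed on the E. coli surface as eCPX fusions, selected cells deep-sequenced, score is each peptide's frequency after selection divided by its frequency in the input.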
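For phosphorylation enrichment, bacterial display in this document: 11-residue human phosphosite peptides and single-mutation variants displayed on the E. coli surface, counted by deep sequencing, each peptide's frequency after selection divided by its frequency in the unselected input library; frequency after pTyr selection over input frequency; kinase dosed for 20-30% of maximal phosphorylation in three min.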

Chain of EPHB1 (P54762 whole entry, looked up): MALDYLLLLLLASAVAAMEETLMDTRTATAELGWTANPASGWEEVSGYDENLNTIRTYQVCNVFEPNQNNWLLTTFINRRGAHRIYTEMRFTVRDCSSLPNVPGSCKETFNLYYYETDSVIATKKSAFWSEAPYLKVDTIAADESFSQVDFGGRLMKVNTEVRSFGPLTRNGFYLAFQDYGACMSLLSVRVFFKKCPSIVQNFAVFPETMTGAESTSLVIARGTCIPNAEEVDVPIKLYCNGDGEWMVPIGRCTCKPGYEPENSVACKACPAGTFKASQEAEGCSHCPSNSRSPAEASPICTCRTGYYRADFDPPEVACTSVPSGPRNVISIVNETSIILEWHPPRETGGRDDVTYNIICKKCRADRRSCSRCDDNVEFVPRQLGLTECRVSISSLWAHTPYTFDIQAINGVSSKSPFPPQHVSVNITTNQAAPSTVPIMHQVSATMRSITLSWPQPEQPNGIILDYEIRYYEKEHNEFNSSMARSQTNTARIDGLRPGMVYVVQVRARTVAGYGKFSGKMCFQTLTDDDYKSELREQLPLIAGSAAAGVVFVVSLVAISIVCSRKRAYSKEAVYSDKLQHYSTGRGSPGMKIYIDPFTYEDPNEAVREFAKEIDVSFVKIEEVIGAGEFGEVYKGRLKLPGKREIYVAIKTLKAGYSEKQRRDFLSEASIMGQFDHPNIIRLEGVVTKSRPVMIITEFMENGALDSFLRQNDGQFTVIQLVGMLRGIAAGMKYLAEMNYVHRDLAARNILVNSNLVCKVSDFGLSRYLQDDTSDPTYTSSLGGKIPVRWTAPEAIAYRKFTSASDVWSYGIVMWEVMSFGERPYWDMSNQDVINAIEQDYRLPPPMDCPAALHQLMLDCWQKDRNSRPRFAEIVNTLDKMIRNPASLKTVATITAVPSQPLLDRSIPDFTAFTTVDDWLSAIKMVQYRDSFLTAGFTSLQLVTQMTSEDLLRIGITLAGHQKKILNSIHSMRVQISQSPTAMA
Chain of FGFR3 (P22607 whole entry, looked up): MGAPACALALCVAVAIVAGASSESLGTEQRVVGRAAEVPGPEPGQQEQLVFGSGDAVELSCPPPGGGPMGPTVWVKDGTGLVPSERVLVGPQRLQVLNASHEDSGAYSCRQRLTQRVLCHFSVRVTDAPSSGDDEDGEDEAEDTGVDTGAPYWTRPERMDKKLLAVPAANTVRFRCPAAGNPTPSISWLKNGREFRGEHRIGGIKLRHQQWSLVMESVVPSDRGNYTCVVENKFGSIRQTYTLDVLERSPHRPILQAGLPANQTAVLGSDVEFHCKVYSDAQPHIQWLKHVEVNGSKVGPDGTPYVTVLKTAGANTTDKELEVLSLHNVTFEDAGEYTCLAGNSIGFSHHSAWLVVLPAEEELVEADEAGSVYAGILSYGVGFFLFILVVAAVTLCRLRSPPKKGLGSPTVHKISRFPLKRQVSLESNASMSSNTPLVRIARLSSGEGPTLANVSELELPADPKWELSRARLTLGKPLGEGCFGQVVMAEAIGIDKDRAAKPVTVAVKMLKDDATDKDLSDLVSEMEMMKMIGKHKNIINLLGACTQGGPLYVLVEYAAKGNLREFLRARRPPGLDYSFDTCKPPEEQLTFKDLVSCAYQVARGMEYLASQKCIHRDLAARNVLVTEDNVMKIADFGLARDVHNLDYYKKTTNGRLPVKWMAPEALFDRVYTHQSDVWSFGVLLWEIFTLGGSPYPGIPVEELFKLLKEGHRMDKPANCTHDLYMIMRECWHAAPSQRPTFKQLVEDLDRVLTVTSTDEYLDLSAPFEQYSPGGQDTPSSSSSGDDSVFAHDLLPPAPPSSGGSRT
Chain of FGFR1 (P11362 whole entry, looked up): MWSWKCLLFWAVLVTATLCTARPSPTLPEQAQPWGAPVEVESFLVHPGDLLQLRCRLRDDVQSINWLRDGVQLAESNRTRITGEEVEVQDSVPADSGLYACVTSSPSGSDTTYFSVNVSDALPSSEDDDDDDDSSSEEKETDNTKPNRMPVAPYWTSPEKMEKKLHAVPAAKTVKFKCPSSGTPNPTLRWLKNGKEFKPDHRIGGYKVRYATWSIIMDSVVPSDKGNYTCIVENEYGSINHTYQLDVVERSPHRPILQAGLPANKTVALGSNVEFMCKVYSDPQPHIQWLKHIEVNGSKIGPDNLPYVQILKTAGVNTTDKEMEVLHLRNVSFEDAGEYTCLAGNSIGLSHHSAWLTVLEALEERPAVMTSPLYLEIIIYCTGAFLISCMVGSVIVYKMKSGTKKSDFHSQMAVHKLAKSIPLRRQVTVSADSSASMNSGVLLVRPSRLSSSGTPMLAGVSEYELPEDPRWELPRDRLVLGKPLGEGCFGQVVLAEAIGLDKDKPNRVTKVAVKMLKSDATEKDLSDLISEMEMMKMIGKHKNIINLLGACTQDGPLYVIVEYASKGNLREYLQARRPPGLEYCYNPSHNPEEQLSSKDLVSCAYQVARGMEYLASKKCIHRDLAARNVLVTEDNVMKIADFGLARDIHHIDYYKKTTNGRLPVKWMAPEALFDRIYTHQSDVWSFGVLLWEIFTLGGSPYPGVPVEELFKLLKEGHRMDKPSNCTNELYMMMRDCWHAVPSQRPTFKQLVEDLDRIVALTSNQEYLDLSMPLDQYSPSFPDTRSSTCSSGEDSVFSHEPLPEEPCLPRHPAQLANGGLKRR
Chain of Fes (P07332 whole entry, looked up): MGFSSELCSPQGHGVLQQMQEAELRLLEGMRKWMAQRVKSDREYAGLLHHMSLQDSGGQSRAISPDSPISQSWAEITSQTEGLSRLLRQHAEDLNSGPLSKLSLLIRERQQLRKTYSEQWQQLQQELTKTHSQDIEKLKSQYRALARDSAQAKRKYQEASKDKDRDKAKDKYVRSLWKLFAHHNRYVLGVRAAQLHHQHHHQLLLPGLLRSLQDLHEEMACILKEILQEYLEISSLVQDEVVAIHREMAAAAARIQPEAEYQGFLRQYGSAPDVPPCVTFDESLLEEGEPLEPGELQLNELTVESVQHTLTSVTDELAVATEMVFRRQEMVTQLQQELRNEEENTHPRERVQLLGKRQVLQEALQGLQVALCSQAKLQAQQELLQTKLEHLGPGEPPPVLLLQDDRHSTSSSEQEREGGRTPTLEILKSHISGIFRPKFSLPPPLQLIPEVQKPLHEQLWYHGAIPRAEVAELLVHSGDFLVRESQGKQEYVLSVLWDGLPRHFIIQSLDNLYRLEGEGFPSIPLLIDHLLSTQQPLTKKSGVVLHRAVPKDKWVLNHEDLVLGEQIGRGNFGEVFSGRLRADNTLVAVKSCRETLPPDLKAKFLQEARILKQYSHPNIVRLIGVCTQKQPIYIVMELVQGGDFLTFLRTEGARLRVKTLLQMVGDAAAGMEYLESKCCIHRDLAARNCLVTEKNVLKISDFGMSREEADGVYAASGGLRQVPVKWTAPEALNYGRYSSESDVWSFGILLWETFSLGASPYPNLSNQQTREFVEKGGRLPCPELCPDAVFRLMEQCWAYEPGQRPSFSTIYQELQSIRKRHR
Chain of Hck (P08631 whole entry, looked up): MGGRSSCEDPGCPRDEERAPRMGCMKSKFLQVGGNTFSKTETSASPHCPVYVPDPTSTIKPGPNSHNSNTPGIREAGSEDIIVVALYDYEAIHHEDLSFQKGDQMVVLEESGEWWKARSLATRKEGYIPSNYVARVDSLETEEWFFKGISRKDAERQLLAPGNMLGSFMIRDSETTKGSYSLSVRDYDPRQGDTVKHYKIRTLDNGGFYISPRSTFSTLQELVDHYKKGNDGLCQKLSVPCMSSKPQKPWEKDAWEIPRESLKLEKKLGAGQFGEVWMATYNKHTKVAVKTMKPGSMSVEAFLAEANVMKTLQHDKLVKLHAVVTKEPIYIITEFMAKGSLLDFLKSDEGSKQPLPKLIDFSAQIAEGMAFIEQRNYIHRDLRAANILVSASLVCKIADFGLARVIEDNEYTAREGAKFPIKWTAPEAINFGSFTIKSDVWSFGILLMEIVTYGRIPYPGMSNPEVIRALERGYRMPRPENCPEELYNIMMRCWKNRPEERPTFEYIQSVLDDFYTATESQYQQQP
Chain of EPHB2 (P29323 whole entry, looked up): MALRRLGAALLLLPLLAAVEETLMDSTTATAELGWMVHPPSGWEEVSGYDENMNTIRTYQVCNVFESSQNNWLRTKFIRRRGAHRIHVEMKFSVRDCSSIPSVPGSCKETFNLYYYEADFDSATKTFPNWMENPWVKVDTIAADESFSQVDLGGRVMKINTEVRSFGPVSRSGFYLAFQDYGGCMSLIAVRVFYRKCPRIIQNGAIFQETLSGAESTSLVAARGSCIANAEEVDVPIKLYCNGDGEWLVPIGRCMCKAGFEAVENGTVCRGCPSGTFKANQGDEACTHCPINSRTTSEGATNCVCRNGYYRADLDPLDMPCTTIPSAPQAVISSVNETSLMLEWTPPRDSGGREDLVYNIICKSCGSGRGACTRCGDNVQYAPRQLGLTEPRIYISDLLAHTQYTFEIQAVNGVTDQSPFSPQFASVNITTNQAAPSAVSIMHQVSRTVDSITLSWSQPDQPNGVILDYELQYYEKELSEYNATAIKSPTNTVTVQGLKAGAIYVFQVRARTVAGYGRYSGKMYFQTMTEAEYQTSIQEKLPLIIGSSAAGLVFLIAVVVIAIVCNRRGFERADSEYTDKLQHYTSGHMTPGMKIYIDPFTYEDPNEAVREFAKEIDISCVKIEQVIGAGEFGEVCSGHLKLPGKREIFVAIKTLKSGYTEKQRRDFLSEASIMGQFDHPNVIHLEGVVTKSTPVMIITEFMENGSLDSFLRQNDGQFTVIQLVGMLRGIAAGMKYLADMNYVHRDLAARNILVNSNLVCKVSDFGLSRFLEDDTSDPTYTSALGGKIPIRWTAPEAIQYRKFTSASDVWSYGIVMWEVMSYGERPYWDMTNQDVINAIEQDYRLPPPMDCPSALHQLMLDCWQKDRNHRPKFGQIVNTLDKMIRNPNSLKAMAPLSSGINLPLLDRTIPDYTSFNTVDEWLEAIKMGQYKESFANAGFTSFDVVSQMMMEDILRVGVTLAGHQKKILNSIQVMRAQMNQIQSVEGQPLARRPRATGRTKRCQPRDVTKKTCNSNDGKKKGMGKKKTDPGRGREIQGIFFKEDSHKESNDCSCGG

| Sequence | SH2 binding enrichment (Grb2 SH2) | SH2 binding enrichment (SHP2-C SH2) | SH2 binding enrichment (c-Src SH2) | phosphorylation enrichment (AncSZ) | phosphorylation enrichment (EPHB1) | phosphorylation enrichment (EPHB2) | phosphorylation enrichment (FGFR1) | phosphorylation enrichment (FGFR3) | phosphorylation enrichment (Fer (mouse)) | phosphorylation enrichment (Fes) | phosphorylation enrichment (Fyn) | phosphorylation enrichment (Hck) | phosphorylation enrichment (Jak2) | phosphorylation enrichment (MERTK) | phosphorylation enrichment (c-Abl (mouse)) | phosphorylation enrichment (c-Src) |
| --- | --- | --- | --- | --- | --- | --- | --- | --- | --- | --- | --- | --- | --- | --- | --- | --- |
| KWRGQYDVAIK [BTK_Y425] | 1.34 | 0.935 | 1.21 | 0.676 | 0.399 | 0.642 | 0.527 | 0.546 | 0.429 | 0.742 | 0.491 | 0.479 | 0.543 | 0.463 | 0.802 | 0.567 |
| KYVVVYFREID [IL17RB_Y447] | 1.62 | 2.88 | 1.37 | 1.61 | 0.578 | 0.545 | 0.513 | 0.867 | 0.591 | 1.66 | 0.486 | 0.499 | 1.51 | 0.471 | 1.01 | 0.626 |
| LADKPYTFEDF [FXN_Y118_YF] | 1.1 | 0.954 | 0.708 | 2.9 | 1.43 | 1.86 | 2.21 | 2 | 1.96 | 2.52 | 7.15 | 1.26 | 0.988 | 1.39 | 0.738 | 3.9 |
| LADKPYTFEDY [FXN_Y118] | 0.758 | 0.588 | 0.446 | 2.03 | 0.736 | 1.04 | 0.955 | 1.14 | 0.832 | 1.74 | 3.63 | 0.945 | 1.92 | 2.31 | 1.55 | 6.91 |
| LDFPEYNGVDR [CASQ1_Y43_D44N] | 0.541 | 0.646 | 0.975 | 2.84 | 1.09 | 1.04 | 0.986 | 1.61 | 1 | 3.29 | 1.43 | 1.16 | 3.51 | 2.17 | 1.95 | 2.17 |
| LENSTYQFIHV [CRB1_Y760_R764H_YF] | 0.94 | 0.652 | 0.456 | 1.77 | 9.73 | 2.92 | 7.91 | 4.82 | 24.8 | 2.22 | 3.24 | 8.87 | 1.19 | 10 | 1.56 | 4.21 |
| LEQQKYTVTVD [IKBKB_Y199] | 0.804 | 0.616 | 0.567 | 1.21 | 0.566 | 0.746 | 0.647 | 1.06 | 0.674 | 1.98 | 0.706 | 0.726 | 0.954 | 0.71 | 0.634 | 0.593 |
| LERYIYNREEF [HLA-DPB1_Y59] | 0.956 | 0.698 | 0.634 | 1.05 | 0.756 | 1.22 | 0.564 | 1.18 | 0.587 | 1.24 | 1.26 | 1.56 | 0.874 | 0.629 | 0.757 | 2.63 |
| LFNQDYPIHSV [GATM_Y227_YF] | 1.21 | 0.725 | 0.432 | 2.31 | 1.46 | 0.787 | 3.19 | 2 | 1.24 | 2.09 | 1.01 | 1.07 | 0.707 | 0.796 | 0.984 | 0.81 |
| LHRAHYDLRHT [AHSG_Y314] | 1.83 | 1.6 | 1.19 | 0.621 | 0.668 | 0.78 | 0.707 | 1.1 | 0.8 | 1.11 | 0.617 | 0.876 | 0.725 | 0.418 | 0.908 | 0.556 |
| LIDSSYLTPTA [GREB1L_Y1063_R1066P] | 1.2 | 0.595 | 0.717 | 0.919 | 0.569 | 0.498 | 0.596 | 0.825 | 0.423 | 1.15 | 0.409 | 0.684 | 0.8 | 0.511 | 0.871 | 0.421 |
| LIFTNYEVGKD [GSTP1_Y112_A114V_YF] | 0.887 | 0.784 | 0.739 | 2.14 | 1.58 | 1.78 | 1.17 | 1.46 | 1.17 | 2.21 | 1.18 | 1.1 | 1.94 | 0.983 | 1.3 | 0.825 |
| LIGRGYDDPEV [HSPA9_Y128_R127G] | 0.772 | 0.635 | 2.39 | 1.54 | 0.695 | 0.802 | 0.828 | 0.894 | 0.669 | 1.88 | 0.975 | 0.931 | 0.868 | 0.602 | 0.756 | 0.567 |
| LIHLHYIRKDF [BBS4_Y43_YF] | 2.06 | 2.75 | 1.6 | 1.51 | 1.17 | 1.01 | 0.937 | 1.22 | 0.984 | 1.18 | 0.871 | 0.637 | 0.787 | 0.471 | 0.612 | 0.527 |
| LIHTKCPQLLP [AHCY_Y143_Y143C] | 0.941 | 0.762 | 0.714 | 0.693 | 0.516 | 0.607 | 0.509 | 0.631 | 0.46 | 0.936 | 0.438 | 0.509 | 0.654 | 0.476 | 0.604 | 0.433 |
| LIQRNYKLTAQ [ALPK2_Y1975_A1978T] | 1.24 | 0.952 | 0.532 | 0.86 | 0.479 | 0.604 | 0.465 | 0.511 | 0.393 | 1.12 | 0.462 | 0.507 | 1.24 | 0.567 | 1.2 | 0.706 |
| LKGQVYILGRE [ASS1_Y359] | 0.836 | 0.444 | 0.31 | 1.09 | 0.522 | 0.949 | 0.406 | 1.07 | 0.756 | 1.26 | 0.679 | 0.369 | 1.17 | 0.56 | 1.47 | 0.438 |
| LKVDVYRRSHK [FUT3_Y222_G223R] | 1.08 | 0.931 | 0.677 | 1.11 | 0.656 | 0.496 | 0.611 | 0.85 | 0.485 | 1.46 | 0.44 | 0.577 | 1.78 | 0.546 | 0.908 | 0.753 |
| LLASGYDSPIN [ABLIM1_Y638_R637G] | 0.615 | 0.653 | 1.84 | 1.33 | 0.764 | 0.825 | 0.859 | 1.09 | 0.423 | 1.28 | 0.529 | 0.783 | 0.737 | 0.52 | 1.03 | 0.556 |
| LLASRYDSPIN [ABLIM1_Y638] | 0.704 | 0.991 | 2.63 | 1.32 | 1.58 | 0.929 | 1.12 | 0.636 | 0.607 | 1.65 | 1.18 | 0.923 | 1.59 | 1.09 | 1.13 | 0.96 |

The next lines start with results.

| SH2 binding enrichment (Grb2 SH2) | SH2 binding enrichment (SHP2-C SH2) | SH2 binding enrichment (c-Src SH2) | Sequence | phosphorylation enrichment (AncSZ) | phosphorylation enrichment (EPHB1) | phosphorylation enrichment (EPHB2) | phosphorylation enrichment (FGFR1) | phosphorylation enrichment (FGFR3) | phosphorylation enrichment (Fer (mouse)) | phosphorylation enrichment (Fes) | phosphorylation enrichment (Fyn) | phosphorylation enrichment (Hck) | phosphorylation enrichment (Jak2) | phosphorylation enrichment (MERTK) | phosphorylation enrichment (c-Abl (mouse)) | phosphorylation enrichment (c-Src) |
| --- | --- | --- | --- | --- | --- | --- | --- | --- | --- | --- | --- | --- | --- | --- | --- | --- |
| 0.625 | 0.962 | 0.395 | LARDMHDKEYY [MET_Y1230_Y1230H] | 0.763 | 0.469 | 0.507 | 0.46 | 0.589 | 0.426 | 0.678 | 0.445 | 0.385 | 0.628 | 0.404 | 0.395 | 0.425 |
| 0.901 | 0.696 | 0.769 | LFFFSYLLKNH [PTEN_Y180_V175L_YF] | 1.39 | 0.443 | 0.976 | 0.577 | 0.671 | 0.672 | 1.98 | 0.346 | 0.705 | 2.28 | 0.584 | 1.66 | 1 |
| 0.847 | 0.815 | 0.521 | LFLASYCIGGG [UBD_Y161_C160S] | 1.22 | 0.655 | 0.788 | 1.06 | 1.04 | 0.671 | 1.63 | 0.416 | 0.533 | 1.21 | 0.537 | 0.886 | 0.495 |
| 1.34 | 1 | 0.539 | LHSEAYLKFNE [PBRM1_Y1610_I1614N_YF] | 1.53 | 0.438 | 0.651 | 0.72 | 0.945 | 0.493 | 1.31 | 1.05 | 0.488 | 1.06 | 0.737 | 0.922 | 0.707 |
| 0.72 | 9.03 | 4.65 | LIDGYYRLTAD [JAK2_Y373] | 2.46 | 1.88 | 2.08 | 11.5 | 5.24 | 1.54 | 2.59 | 1.71 | 1.87 | 10.4 | 0.961 | 1 | 0.899 |
| 1.23 | 3.03 | 0.882 | LIGTPYWMAPE [PAK5_Y608_V604I] | 1.74 | 1.4 | 1 | 4.64 | 3.65 | 0.917 | 1.51 | 0.825 | 1 | 1.17 | 1.32 | 0.987 | 2.6 |
| 0.861 | 0.707 | 0.609 | LKALHYMAQTS [SACS_Y3367_V3369A] | 0.89 | 0.759 | 0.634 | 0.765 | 0.887 | 0.746 | 0.94 | 0.705 | 0.623 | 0.751 | 0.749 | 0.907 | 0.587 |
| 1.08 | 0.756 | 0.352 | LKFAIYFEARE [LAMA2_Y1258_YF] | 1.45 | 1.78 | 0.983 | 1.41 | 2.05 | 0.884 | 2.6 | 1.29 | 0.736 | 1.1 | 0.845 | 1.06 | 0.345 |
| 0.399 | 0.573 | 0.544 | LKYAIYFEVRE [LAMA2_Y1258_A1261V] | 2.08 | 1.67 | 1.23 | 1.09 | 1.39 | 0.929 | 2.57 | 1.17 | 0.827 | 2.44 | 0.954 | 2.14 | 1.45 |
| 0.869 | 0.821 | 0.349 | LLINKYGLSAH [SCP2_Y151] | 0.877 | 0.71 | 0.669 | 0.488 | 0.708 | 0.619 | 0.99 | 0.443 | 0.428 | 0.838 | 0.372 | 0.559 | 0.428 |
| 0.975 | 3.55 | 0.945 | LLKNMYLMLDN [STAT1_Y203_K201N] | 2.85 | 1.34 | 1.02 | 0.868 | 1.65 | 1.02 | 2.63 | 0.593 | 0.921 | 2.77 | 0.745 | 1.7 | 0.933 |
| 1.43 | 1.28 | 0.76 | LLREWYLQDPY [SIX3_Y225] | 1.52 | 0.947 | 0.928 | 0.867 | 1.12 | 0.938 | 1.52 | 1.08 | 0.85 | 1.11 | 0.606 | 1.11 | 1.11 |
| 0.952 | 0.79 | 0.536 | LLVVLNKYRCY [PSEN1_Y154_Y154N] | 1.34 | 1.03 | 0.875 | 0.73 | 1.39 | 0.53 | 1.6 | 0.631 | 0.448 | 1.68 | 0.456 | 0.96 | 0.577 |
